Where “and” joins values, the source holds several entries; their conditions need not be identical. Equal entries are not always repeated. Where two headings read alike, the source gives them in different places.
How the values were obtained:
[1] = target: recombinant activated coagulation factor VII (Homo sapiens) (UniProt P08709); experiment: SPR; Biacore 8K, 25 °C; biAb (0.5-4 nM) captured on immobilised anti-human IgG (CM4 chip); FVIIa (0-4 nM) or sTLT-1 (0-60 μM) injected; 10 mM HEPES, 150 mM NaCl, 0.05% polysorbate 20, pH 7.4, 5 mM CaCl2, 1 mg/ml BSA; Langmuir 1:1 kinetics model; n = 2
[2] = target: soluble extracellular fragment of TREM-like transcript-1 (Homo sapiens (Human).) (UniProt Q86YW5); experiment: as above
[3] = target: recombinant activated coagulation factor VII (rFVIIa, NovoSeven) (Homo sapiens) (UniProt P08709); experiment: SPR; Biacore 8K, 25 °C; FVIIa or FVII (2.5 nM) captured on immobilised anti-FVII IgG1 (against the Gla domain) on a CM4 chip; HMB-001 0-4 nM injected; 10 mM HEPES, 150 mM NaCl, 0.05% polysorbate 20, pH 7.4, 5 mM CaCl2, 1 mg/ml BSA; Langmuir 1:1 kinetics; n = 2
[4] = target: recombinant zymogen FVII (Homo sapiens) (UniProt P08709); experiment: as above
[5] = target: soluble extracellular fragment of TREM-like transcript-1 (Homo sapiens (Human).) (UniProt Q86YW5); experiment: SPR; Biacore 8K, 25 °C; biAb (0.5-4 nM) captured on immobilised anti-human IgG (CM4 chip); FVIIa (0-4 nM) or sTLT-1 (0-60 μM) injected; 10 mM HEPES, 150 mM NaCl, 0.05% polysorbate 20, pH 7.4, 5 mM CaCl2, 1 mg/ml BSA; Langmuir 1:1 kinetics model; n = 2; remark: listed apart in the source
[6] = target: recombinant activated coagulation factor VII (Homo sapiens) (UniProt P08709); experiment: SPR; Biacore 8K, 25 °C; FVIIa or FVII (2.5 nM) captured on immobilised anti-FVII IgG1 (CaFVII-22, against the Gla domain; CM4 chip); HMB-001 (0-4 nM) injected; 10 mM HEPES, 150 mM NaCl, 0.05% polysorbate 20, pH 7.4, 5 mM CaCl2, 1 mg/ml BSA; Langmuir 1:1 kinetics model; n = 2
[7] = target: recombinant zymogen FVII (Homo sapiens) (UniProt P08709); experiment: as above
[8] = target: soluble extracellular fragment of TLT-1 (sTLT-1) (human) (UniProt Q86YW5); experiment: SPR; Biacore 8K, 25 °C; biAb (0.5-4 nM) captured on immobilised anti-human IgG on a CM4 chip; FVIIa (0-4 nM) or sTLT-1 (0-60 μM) injected; 10 mM HEPES, 150 mM NaCl, 0.05% polysorbate 20, pH 7.4, 5 mM CaCl2, 1 mg/ml BSA; Langmuir 1:1 kinetics; n = 2
[9] = target: T1, sTLT-1 stalk peptide (37-mer TLT-1 peptide) (human); experiment: crystal structure; gel-filtrated 1:1 Fab-sTLT-1 stalk peptide complex; sitting-drop vapor diffusion at 18 °C; 1 M LiCl, 0.1 M Na citrate-citric acid pH 4.0, 20% PEG 6000; two complexes in the asymmetric unit; conditions: both partners purified
T1 construct: TREM-like transcript-1 (TLT-1), amino acids 111-147 of mature TLT-1; numbers count on: the mature protein; Amino acids 7-21 of the peptide are seen in the crystal structure; also called synthetic stalk peptide of TLT-1; source: synthetic peptide
T1 chain: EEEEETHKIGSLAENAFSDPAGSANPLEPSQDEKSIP

[10] = target: T2, soluble extracellular fragment of TLT-1 (sTLT-1) (human, UniProt Q86YW5); experiment: SPR; SPR binding assay of the monovalent control antibodies with their antigens; format not told; conditions: both partners purified
T2 construct: TREM-like transcript-1 (TLT-1), amino acids 1-147 of mature TLT-1 (IgV domain 1-110 and stalk 111-147); numbers count on: the mature protein; two amino acid (valine-aspartic acid) linker before the His tag, told in words; source: CHO cells (ExpiCHO), transient transfection, purified (HisTrap); not shown: His tag, C-terminal, kept

[11] = target: T3, recombinant activated coagulation factor VII (rFVIIa, NovoSeven) (Homo sapiens, UniProt P08709); experiment: as above; conditions: both partners purified
T3 construct: source: bought: NovoSeven, Novo Nordisk

[12] = target: T4, active site-inhibited FVIIa:soluble TF complex (FVIIai:sTF) (human | , UniProt P08709;P13726, active site inhibited with H-D-Phe-Phe-Arg-chloromethyl ketone (FFR-cmk)); experiment: crystal structure; SEC-purified Fab:FVIIai:sTF complex; sitting-drop vapor diffusion at 18 °C; 0.15 M CsCl, 15% PEG 3350; four complexes in the asymmetric unit; conditions: both partners purified
T4 construct: as the light chain of m8: factor VIIa light chain without the N-terminal Gla domain; as the heavy chain of m8: factor VIIa heavy chain (protease domain); as m9: tissue factor, amino acids 1-219; also called FVIIa:sTF complex; source: FVIIai from CHO cells and sTF from Escherichia coli; SEC-purified together with the Fab; copies: + +

[13] = target: T5, active site-inhibited FVIIa (FVIIai), prepared from FVIIa-desGLA (Homo sapiens, active site inhibited with H-D-Phe-Phe-Arg-chloromethyl ketone (FFR-cmk)); experiment: as above; conditions: both partners purified
T5 construct: source: CHO cells (CHO-EBNA), purified (VIISelect, desalted), then incubated with FFR-cmk
T5 chain 1: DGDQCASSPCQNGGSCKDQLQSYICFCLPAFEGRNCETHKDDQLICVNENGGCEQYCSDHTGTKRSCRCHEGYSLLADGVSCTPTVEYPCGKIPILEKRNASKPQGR
T5 chain 2: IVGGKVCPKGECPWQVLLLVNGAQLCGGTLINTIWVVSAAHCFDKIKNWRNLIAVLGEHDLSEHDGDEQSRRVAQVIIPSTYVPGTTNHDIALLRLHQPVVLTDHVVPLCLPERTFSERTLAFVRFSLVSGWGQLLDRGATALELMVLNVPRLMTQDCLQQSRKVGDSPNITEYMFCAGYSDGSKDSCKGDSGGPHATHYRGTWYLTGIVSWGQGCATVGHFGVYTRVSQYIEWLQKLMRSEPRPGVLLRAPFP

HMB-001 (bispecific antibody)
Kd [1]: 40 pM
koff [1]: 0.000127 s⁻¹
kon [1]: 2.9e+06 M⁻¹ s⁻¹
Kd [2]: 2340 pM
koff [2]: 0.000641 s⁻¹
kon [2]: 274000 M⁻¹ s⁻¹
Kd [3]: 370 pM
Kd [4]: 400 pM
Kd [5]: 2330 pM and 2350 pM
koff [5]: 0.00061 s⁻¹ and 0.000672 s⁻¹
kon [5]: 262000 M⁻¹ s⁻¹ and 286000 M⁻¹ s⁻¹
Kd [6]: 370 pM
koff [6]: 0.000664 s⁻¹ and 0.000665 s⁻¹ and 0.000666 s⁻¹
kon [6]: 1.8e+06 M⁻¹ s⁻¹
Kd [7]: 400 pM
koff [7]: 0.000725 s⁻¹
kon [7]: 1.83e+06 M⁻¹ s⁻¹ and 1.82e+06 M⁻¹ s⁻¹
Kd [8]: 2300 pM

B1: anti-TLT-1 Fab fragment of HMB-001 (Fab, V domains shown)
VH: EVQLVESGGGLVQPGGSLRLSCAASGFTFSRYWMTWVRQAPGKGLVWVGEINPDSSTINYAPSVKGRFTISRDNAKNTLYLQMNSLRAEDTAVYYCASGVFTSWGQGTLVTVSS
VL: DIVMTQTPLSSPVTLGQPASISCRSSQSLVHRQGNTYFHWLQQRPGQPPRLLIYKVSNRFSGVPDRFSGSGAGTDFTLKISRVEAEDVGVYYCSQSTHVPYTFGQGTKLEIK
notes: Fab part of the heavy chain of the anti-TLT-1 arm of m1; heavy chain of the Fab in PDB 8CHE; as the light chain of the anti-TLT-1 arm of m1; light chain of the Fab in PDB 8CHE; source: CHO cells, purified (KappaSelect)
binding result [9]: binds

B2: monovalent control antibody with the TLT-1-binding arm of HMB-001 (antibody, V domains shown)
VH: EVQLVESGGGLVQPGGSLRLSCAASGFTFSRYWMTWVRQAPGKGLVWVGEINPDSSTINYAPSVKGRFTISRDNAKNTLYLQMNSLRAEDTAVYYCASGVFTSWGQGTLVTVSS
VL: DIVMTQTPLSSPVTLGQPASISCRSSQSLVHRQGNTYFHWLQQRPGQPPRLLIYKVSNRFSGVPDRFSGSGAGTDFTLKISRVEAEDVGVYYCSQSTHVPYTFGQGTKLEIK
notes: as the heavy chain of the anti-TLT-1 arm of m1 (without DuoBody mutations); Fab part in PDB 8CHE; constant part as in PDB 5DK3; as the light chain of the anti-TLT-1 arm of m1; light chain of the Fab in PDB 8CHE; empty Fc, E216-G446 in EU numbering; About 100 kDa; also called anti-TLT-1 cAb; monovalent cAb; source: DuoBody assembly of the parental anti-TLT-1 antibody with an empty Fc; purified by …
binding result [10]: binds

B3: monovalent control antibody with the FVIIa-binding arm of HMB-001 (antibody, V domains shown)
VH: QVQLQESGPGLVKPSQTLSLTCTVSGYSISSDSAWSWIRQPPGKGLEWIGYIQYSGSTNYNPSLKSRVTISRDTSKNQFSLKLSSVTAADTAVYYCARSVNYYGNSFAVGYWGQGTLVTVSS
VL: EIVLTQSPATLSLSPGERATLSCRASQGISDYLHWYQQKPGEAPRLLIKYTSQPATGIPARFSGSGSGTDFTLTISSLEPEDFAVYYCQNGHSFPLTFGQGTKLEIK
notes: as the heavy chain of the anti-FVIIa arm of m1; Fab part in PDB 8CN9; constant part as in PDB 5DK3 with the DuoBody mutations (EU numbering); as the light chain of the anti-FVIIa arm of m1; light chain of the Fab in PDB 8CN9; empty Fc, E216-G446 in EU numbering; About 100 kDa; also called anti-FVIIa cAb; monovalent cAb; source: DuoBody assembly of the parental anti-FVIIa antibody with an empty …
binding result [11]: binds

B4: anti-FVIIa Fab fragment of HMB-001 (Fab, V domains shown)
VH: QVQLQESGPGLVKPSQTLSLTCTVSGYSISSDSAWSWIRQPPGKGLEWIGYIQYSGSTNYNPSLKSRVTISRDTSKNQFSLKLSSVTAADTAVYYCARSVNYYGNSFAVGYWGQGTLVTVSS
VL: EIVLTQSPATLSLSPGERATLSCRASQGISDYLHWYQQKPGEAPRLLIKYTSQPATGIPARFSGSGSGTDFTLTISSLEPEDFAVYYCQNGHSFPLTFGQGTKLEIK
notes: Fab part of the heavy chain of the anti-FVIIa arm of m1; heavy chain of the Fab in PDB 8CN9; as the light chain of the anti-FVIIa arm of m1; light chain of the Fab in PDB 8CN9; also called anti-FVII Fab of HMB-001; source: HEK293 suspension cells (293Expi), transient transfection, purified (MabSelect SuRe)
binding result [12]: binds
binding result [13]: binds

From publication PMC11358003, “A bispecific antibody approach for the potential prophylactic treatment of inherited bleeding disorders” (Nature Cardiovascular Research, 2024)
